Assays:
NMR solution structure = target: the molecule itself; test: NMR solution structure
SEC = target: the molecule itself; test: SEC

Protein | binding result (NMR solution structure) | stoichiometry N (SEC)
AbhN (N-terminal DNA-binding domain of Abh, residues 1-54) (domain or fragment, Bacillus subtilis, UniProt P39758 1-54, looked up) MKSIGVVRKVDELGRIVMPIELRRALDIAIKDSIEFFVDGDKIILKKYKPHGVC | binds | –
SpoVTN (N-terminal DNA-binding domain of SpoVT, residues 1-55) (domain or fragment, Bacillus subtilis, UniProt P37554 1-55, looked up) MKATGIVRRIDDLGRVVIPKEIRRTLRIREGDPLEIFVDRDGEVILKKYSPISEL | – | 2
